# Measurements as given in PMC4742251, “The Malarial Exported PFA0660w Is an Hsp40 Co-Chaperone of PfHsp70-x” (PLoS ONE, 2016).
# Experiments:
# Settings in all cases: both partners purified
# HSPA1A-(His)6 [1] = biological target: T1, HSPA1A-(His)6 (human, UniProt P0DMV8 1-641); assay: SPR; Hsp70s amine-coupled to a GLC chip (ProteOn XPR36); BSA, Hsj1a or PFA0660w at 1 μM as analyte in PBST pH 7.4, with and without 1 mM ATP; read qualitatively
# T1 construct: human Hsp70 (HSPA1A); also called human Hsp70; HSPAIA
# (His)6-PfHsp70-x = (His)6-PfHsp70-x (Plasmodium falciparum); assay: SPR; Hsp70s amine-coupled to a GLC chip (ProteOn XPR36); PFA0660w 200-1000 nM as analyte in PBST pH 7.4 with 1 mM ATP; 60 μl/min, 90 s contact, 300 s dissociation; separate fits of association and dissociation, KD calculated from the rate constants
# HSPA1A-(His)6 [2] = biological target: T1, HSPA1A-(His)6; assay: as above
# (His)6-PfHsp70-1 = biological target: T2, (His)6-PfHsp70-1 (Plasmodium falciparum, UniProt Q8IB24 1-677); assay: as above
# T2 construct: PfHsp70-1, parasite-resident Hsp70 of Plasmodium falciparum
# T1 sequence (P0DMV8 whole entry): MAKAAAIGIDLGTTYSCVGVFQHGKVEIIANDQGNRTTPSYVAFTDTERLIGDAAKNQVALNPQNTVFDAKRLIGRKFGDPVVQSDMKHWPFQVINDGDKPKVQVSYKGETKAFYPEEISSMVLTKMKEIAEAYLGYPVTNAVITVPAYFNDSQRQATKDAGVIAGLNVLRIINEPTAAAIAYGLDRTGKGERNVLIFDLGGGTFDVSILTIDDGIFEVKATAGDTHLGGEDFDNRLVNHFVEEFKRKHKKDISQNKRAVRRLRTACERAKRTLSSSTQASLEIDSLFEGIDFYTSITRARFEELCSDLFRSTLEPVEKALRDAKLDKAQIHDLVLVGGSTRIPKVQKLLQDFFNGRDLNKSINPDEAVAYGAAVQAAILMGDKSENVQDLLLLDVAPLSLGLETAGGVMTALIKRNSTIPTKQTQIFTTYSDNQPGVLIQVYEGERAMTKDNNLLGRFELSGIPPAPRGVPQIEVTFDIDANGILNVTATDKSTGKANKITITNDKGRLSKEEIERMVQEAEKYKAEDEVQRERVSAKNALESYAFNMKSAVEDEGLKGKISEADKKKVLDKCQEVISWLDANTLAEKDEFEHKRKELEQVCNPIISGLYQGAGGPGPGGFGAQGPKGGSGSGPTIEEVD
Binder,binding result (HSPA1A-(His)6 [1]),Kd ((His)6-PfHsp70-x) [nM],Kd (HSPA1A-(His)6 [2]) [nM],Kd ((His)6-PfHsp70-1) [nM]
"(His)6-Hsj1a (natural protein, UniProt P25686-2 1-277, looked up, Control Hsp40; also called DNAJB2a) MASYYEILDVPRSASADDIKKAYRRKALQWHPDKNPDNKEFAEKKFKEVAEAYEVLSDKHKREIYDRYGREGLTGTGTGPSRAEAGSGGPGFTFTFRSPEEVFREFFGSGDPFAELFDDLGPFSELQNRGSRHSGPFFTFSSSFPGHSDFSSSSFSFSPGAGAFRSVSTSTTFVQGRRITTRRIMENGQERVEVEEDGQLKSVTINGVPDDLALGLELSRREQQPSVTSRSGGTQVQQTPASCPLDSDLSEDEDLQLAMAYSLSEMEAAGKKPADVF",binds,,,
(His)6-PFA0660w (natural protein) AEGNKNFFFNKDNGVFGKSSMDYYTLLGVDKGCSEDDLRRAYLKLAMKWHPDKHVNKGSKVEAEEKFKNICEAYSVLSDNEKRVKYDLFGMDALKQSGFNSSNFQGNISINPLEVFTKAYSFYNKYFSKSSGAGNHNIFTHIKNLYPLRNDFSEDESSYNDVEEYEVPLYVTLEDLYNGCTKTLKVTRKRYDGCYLYYEDYFINVDIKQGWNNGTKITFHGEGDQSSPDSYPGDLVLVLQTKKHSKFVRKSRDLYYRHIITLEQSLTGFDFVIKSLDNRDIHIQIDEVVKPDTKKVIKNEGMPYSRDPSIRGNLIVEFDIIYPNTIKKEQKKLIKEIFKESY,,37,64,251
